Experiment [1] has as its target SV2C, the BoNT/A protein receptor, human (human (endogenous in hiPSC-derived motor neurons)) (UniProt Q496J9).
The target of experiment [2] is SV2C, the BoNT/A protein receptor, rat (rat (endogenous in primary rat spinal cord cells)) (UniProt Q9Z2I6).
Experiment [3] has the same target. The source holds these as a separate data set.

Read-outs that look alike come from different tables or passages of the source.

UniProt Q9Z2I6, sequence (Q9Z2I6 whole entry): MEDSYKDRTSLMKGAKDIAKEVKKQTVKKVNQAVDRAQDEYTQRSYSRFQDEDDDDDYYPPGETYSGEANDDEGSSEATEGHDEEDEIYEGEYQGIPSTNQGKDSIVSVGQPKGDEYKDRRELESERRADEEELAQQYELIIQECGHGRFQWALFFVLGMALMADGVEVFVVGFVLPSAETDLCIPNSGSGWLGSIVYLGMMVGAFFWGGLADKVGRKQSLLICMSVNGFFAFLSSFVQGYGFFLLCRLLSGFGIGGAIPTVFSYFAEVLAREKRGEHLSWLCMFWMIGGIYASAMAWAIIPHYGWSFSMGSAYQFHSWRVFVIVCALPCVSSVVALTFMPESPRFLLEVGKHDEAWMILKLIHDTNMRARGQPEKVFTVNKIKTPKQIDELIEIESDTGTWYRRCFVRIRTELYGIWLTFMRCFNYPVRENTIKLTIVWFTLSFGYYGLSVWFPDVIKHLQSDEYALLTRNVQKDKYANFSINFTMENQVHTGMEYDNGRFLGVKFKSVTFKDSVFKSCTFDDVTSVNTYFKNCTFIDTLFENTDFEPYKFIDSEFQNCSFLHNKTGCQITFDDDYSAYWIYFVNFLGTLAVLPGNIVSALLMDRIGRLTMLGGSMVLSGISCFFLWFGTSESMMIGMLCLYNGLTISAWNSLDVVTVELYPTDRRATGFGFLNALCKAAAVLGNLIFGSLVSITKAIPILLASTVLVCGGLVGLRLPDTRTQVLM
UniProt Q496J9, sequence (Q496J9 whole entry): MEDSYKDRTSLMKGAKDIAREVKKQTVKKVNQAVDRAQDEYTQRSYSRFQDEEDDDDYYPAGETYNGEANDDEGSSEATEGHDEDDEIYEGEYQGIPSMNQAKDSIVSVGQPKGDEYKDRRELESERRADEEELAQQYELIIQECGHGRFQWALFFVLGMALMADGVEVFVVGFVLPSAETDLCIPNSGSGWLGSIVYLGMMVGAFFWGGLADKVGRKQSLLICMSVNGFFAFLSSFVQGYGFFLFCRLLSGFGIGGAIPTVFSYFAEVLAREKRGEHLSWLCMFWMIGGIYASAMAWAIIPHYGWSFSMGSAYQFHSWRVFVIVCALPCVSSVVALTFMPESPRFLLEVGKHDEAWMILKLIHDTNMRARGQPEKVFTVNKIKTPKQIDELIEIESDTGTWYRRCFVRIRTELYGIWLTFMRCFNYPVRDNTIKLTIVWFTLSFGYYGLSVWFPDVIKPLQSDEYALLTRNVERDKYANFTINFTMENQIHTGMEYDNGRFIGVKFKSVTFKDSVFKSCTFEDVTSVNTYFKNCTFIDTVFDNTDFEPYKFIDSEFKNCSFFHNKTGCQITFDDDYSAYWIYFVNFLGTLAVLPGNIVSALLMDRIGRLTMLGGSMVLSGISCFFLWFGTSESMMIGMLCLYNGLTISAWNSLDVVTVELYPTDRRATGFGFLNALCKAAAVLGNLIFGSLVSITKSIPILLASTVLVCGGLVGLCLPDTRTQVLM

“Botulinum neurotoxin subtype A1 (BoNT/A1), 150-kDa holotoxin (from UniProt P0DPI0) (natural protein)”: in experiment [1], the EC50 MN (SNAP-25 cleavage in hiPSC derived motor neurons, 48 h) was found to be 0.07 pg/Well. The EC50 RSC (SNAP-25 cleavage in primary rat spinal cord cells, 48 h) in experiment [2] amounted to 1 pg/Well; in experiment [3] it was 1.1 pg/Well.

Source of the values: article PMC10055998.
